# Laboratory results as given in patent US20240109958.
# Tests used:
# [1] = target: Ub vinyl sulfone HA-tagged probe (Ub-VS-HA; Cat #U-212, Boston Biochem) (UniProt P0CG48)
# [2] = target: lysine-less catalytically inactive UCHL1 (UniProt P09936)
# [3] = target: lysine-less catalytically inactive UCHL5 (UniProt Q9Y5K5)
Substance,modification by the suicide probe Ub-VS (immunoblot) [1],in vitro ubiquitination assay with purified proteins (immunoblot) [2],in vitro ubiquitination assay with purified proteins (immunoblot) [3]
N-terminally ubiquitinated mimetic Ub^G76V_UCHL1,Ub^G76V_UCHL1 remained largely unmodified,–,–
N-terminally ubiquitinated mimetic Ub^G76V_UCHL5,Ub^G76V_UCHL5 rapidly reacted with Ub-VS,–,–
"UBE2W (Cat #E2-740, Boston Biochem)",–,UBE2W can monoubiquitinate lysine-less versions of both UCHL1 and UCHL5,UBE2W can monoubiquitinate lysine-less versions of both UCHL1 and UCHL5
